According to the DeepSol protein solubility set:

Test: soluble on expression in E. coli; label from the status in PepcDB or PDB records

Sequence	soluble on expression in E. coli
MAQQLLMPKATAVWLVDNTALSFDQIAQFCKLHPLEVKAIADGESAQGIKGLDPIATGQLSRDEIARAEGNPNHKLKLSEPKVRVPDSKRKGPRYTPVSKRQDRPNAILWLVRNHPELKDAQISRLVGTTKATIEQIRERTHWNSANLTPMDPVTLGLCSQIDLDLEVERASKGRPLPSAAETGATLESAQETEKLDYGQDREEEKEIDADAVFAKLKSLKSDRKDDEEDDY	not soluble
GPGSMEETVEHHFVEPNNISHMERHTAYATGPLDIDGGSSDSNCVLTAPSMTVTTSADGSSFVQLTEEDMQLMPEEQSISGGSYDETRTPESVNVVNS	not soluble
MSLQPSKRYEIGISQTIGKNDRMQDTANVLGELFPNIDIIGIFDGHNGEEAARYCLISMKNEFNCLNPKDCEHQLPQIFESIHNNISSQTISGTTASICIIRSDDVVLAHVGDSPIYFYENGGKVINIKGVDRVNGQINLSRSLGDKLLQPPLTYKPDISIHSLSMKYIVIVTDGVTDSLSDSEMEIILSQPLSPDQIAATIRNNAFINGSVDNISVIVIQIIEGHHHHHH	soluble
MTLKLTYFDIHGLAEPIRLLLADKQVAYEDHRVTYEQWADIKPKMIFGQVPCLLSGDEEIVQSGAIIRHLARLNGLNGSNETETTFIDMFYEGLRDLHTKYTTMIYRNYEDGKAPYIKDVLPGELARLEKLFHTYKNGEHYVIGDKESYADYVLFEELDIHLILTPNALDGVPALKKFHERFAERPNIKAYLNKRAAINPPVNGNGKQ	not soluble
MSLVEQLVKELSKGLNTRDYPEGFFKEHLAFRLKINKLEPVKHPHIPDINSLLGVEKQKEVLLRNTAQFVKGLPANDVLLWGARGTGKSSLVKALLGVFGKEGLRIVQVTKHEIPELADLYEVLRDKEEKFILFFDDLTFEPHEDAFRLLKSIMEGDVEERPQNVLFTQLQTGDTSLRIWKKRINFRRKHSTKSFL	not soluble
GMSDTVLTGLLDTVWQQFGRGTKDRHHPARHPTLATIGTDGPDLRTLVLRAASHAEATLEFHTDAASPKVAHIRRDARVAIHIWIPKASLQVRAKAIAKILPGDPNLFAQLPEAARMNYQGPVPGTPLPAEPDATPNRFTRLICHLSEIDVLHLTTPHQRAVYTAPDWRGIWVSP	soluble
MSLLKNVEVFWQNFLDKHELDMLMPDVWMFGDGSSEMGNRLGQLVVSGRKTATCSSLDIYKMEEEQLPKAGQYDIILDGQSQPLAIIRTTKVEIMPMNKVSESFAQAEGEGDLTLDYWYEEHARFFKEELAPYQLQFYPDMLLVCQSFEVVDLYTEKEEGGSHHHHHH	soluble
MREMKKLVKIATSLTLMGGIFVSANGVSANTDVTQKSSPNIMIEFDDVTTDHWAYDEITNLVYHRIMYGYGNGKFGTEDNITREQAAAVLHRALGLKRSVFDANPYGDISGKSTMFPYEILHLTNLGIFKGDENGNFRPKDTLTRAELAQILTKAYELKAKSPHTFTDIPEKHWARDAISALQSNKVAVGTGDGKFEPEMLVTRGQFAKFLQRSIDNSPGKME	not soluble
MAFSAPEPELSVVVPTLNEAETVATLLAALAAQRDVALELLLCDGGSTDGTAALVRGRAGDLPFPVTVTETPPGRGRQMNAGAAAARGATFLFLHADSIIADPLALRRGLDHLAAARRSDKRAAGHFRLRFAGDSPSPLAYRFYERKARLHRPGCTHGDQGLLIPREFFDQVGPFDEGLPILEDVRLAERIAAMGTWVLLPAEIITSARRFETEGLRERQTLNAILMNFAAIGWQQGVEELVAGYRSQDRSGRLRLGPHLARIAGLTAALPRQERLRLWYLTGGYVRGNAWQIPLFLDVRNAWRRGGDDGATPLLSLHDRWFDLLTDNPAGRAAAALMTFLWFRLTLRREMKDWPGILRTPLEHHHHHH	not soluble
DAAPAAGSTLDKIAKNGVIVVGHRESSVPFSYYDNQQKVVGYSQDYSNAIVEAVKKKLNKPDLQVKLIPITSQNRIPLLQNGTFDFECGSTTNNVERQKQAAFSDTIFVVGTRLLTKKGGDIKDFADLKGKAVVVTSGTTSEVLLNKLNEEQKMNMRIISAKDHGDSFRTLESGRAVAFMMDDALLAGERAKAKKPDNWDIVGKPQSQEAYGCMLRKDDPQFKKLMDDTIAQVQTSGEAEKWFDKWFKNPIPPKNLNMNFELSDEMKALFKEPNDKALNLEHHHHHH	soluble
MRGIHRLSALLVKSASQGKYCDGAGLWLNVRKDNTRSWFFRYTYHNKRREMGLGPVAQLSLKEARELAKHYSAILREGNDPIVFREQTVLKQQSNIFSEIATAAFESKKAELKNEGKNGRWFSPLELHVIPHIGSLSIEKLTANIIRNVLAPLWHEKADTARKALNRINICLKYAAALGLDVDLQACMKARALLGKPRATSTNIPAMPWQEVPAFYQSLDDKILSNLALKLLILTGVRSYPLRYLRLEQIDKDIWTIPKENMKGIVGKVSDFRVPLSHEALKMIEKSLPFEKNGFLFAGSSGKPISDVTLSKFMKDKGFDYRPHGFRSSLRDWIAETTSTPFEIAETVLAHSVGSSVTKAYMRTDFLEQRHTLMEQWAAFITGAT	not soluble
MFSTVFVAGYGNSTEGHWQNSWCKITKNSYWVEQEDWNNPNCVDWIESLNALVQSIDGPILLVSHSLGGSTIVEWSKKYSANIIGAFMVAVPDVQCEHFPKEISGYQLPPLEKLPFPSMLLASTNDPYSTLDRSKYFVDIWGSDLTIVGDLKHVNADSNIGEWSYGLNLLNKFITSIDS	not soluble
SNGAGLAADIQLQRDAKTPLALSAKLAEVFFRTGNPLAATLADWPGLLELGNGRATAAAGWKLDAAGGSSLDLDLTLKGLDGIYDRSELKGLGGSLALRLRGGQLSLDSPGLSLAEANPGLPLGPVSFRGRYEAPLSAPGSGRLSWQTLQSGLFGGQASVPAGSIRLGQAEQKFALRIQGIQLGEIFRVYPAEGLAGEGTLDGELPLMLNRWKPSVSGGQVKAREPGYLRFRSAKIEALGRSNPGMKLVADALDDFHYDVLQSSVDYHENGKLLLGLRLQGSNPDLEKGRPVNLNVNLEEDIPALLTSLQLSDRVSETIRQ	not soluble
MPRVNIGPDNNAQIEITTLQSQSKSRKLKKIKMASGSERVVVVGVDDSAHSYHALETALDLFFIPFKANPRFKLVVLHARPTATFFLGVAGPGTVDIIPMVEEDLNKTADLVKKKCAEVCSAKSVEISSLEVIEGDPRNIMLEAVERHHA	soluble
MSLNDTALTITAVRAVLLSHRYQPGEELTWVGGTIWSWDAALVEVTLSDGTTGIGEAGAGIMAAAAVPGIVDAFRPYVLDHEFGHPLEVADHLRAYTAFWARGGMLNGVAGAIETAAVDAVAKRLGVPAYEVLGGLKRDWIESYASGGLGTTFGEVSDWAAAQIEAGFGTVKFRAMTDPDTTIKLLDHVTALLPEGIQFVIDAVQACASDPWPVDEAIRVGQKAAELGARWYEEPCQADDVAGYAAVRAAVNVPISGVESNGTVRDFAQLLDAKALDVAQPDVTFVGGPKAFAQVAELAHATGVKTVPHVWGSGVTFAANLHTVLANPYVELFEYCTLPNPLRDAMRVEEVDFRDGGIVAPTAPGLGIQLTPEIEAQFPFSPGGGHVIREGHHHHHH	soluble
MAHHHHHHMGNKLCCINNDLQNSKSSIDIYKYDPREIYGDYDDWTLESWIDKYKNGNSIKVAFPDGNEIQCHFKIFLKERCFELSLDNKVRVIKFNDINCILHRNSCESLLESEQNLLKSPKVIGIRLISTLKAIAFAMDSPGEARMFYEFIEKYCLNG	not soluble
MARPLVPSSQKALLLELKGLQEEPVEGFRVTLVDEGDLYNWEVAIFGPPNTYYEGGYFKARLKFPIDYPYSPPAFRFLTKMWHPNIYETGDVCISILHPPVDDPQSGELPSERWNPTQNVRTILLSVISLLNEPNTFSPANVDASVMYRKWKESKGKDREYTDIIRKQVLGTKVDAERDGVKVPTTLAEYCVKTKAPAPDEGSDLFYDDYYEDGEVEEEADSCFGDDEDDSGTEESLEHHHHHH	not soluble
MENIVNRTYTRIGQLLKQDISQGIYSIGDKLPTEREISEKFGVSRTIVREAMVMLEVEKLVEVKKGSGVYVVRTPESIHMEHSDLPDVGPFELLQARQLLESSIAEFAALQATKKDILNLKQILNREKELLTQNQDDYSADKDFHLALAEITQNDVLVKLQEQLWQYRFNSAMWAQLHSRILQNDYHHLWIEDHQTILSAIQKKNANEARKAMWQHLENVKVKLFELSDVEDPHFDGYLFNTNPVVVGI	not soluble
MGSDKIHHHHHHMPALAHRRSDIASGTRTTALTDHRFRGRITSFTRQVPKLMNKQQGNTPVHIWRVDFEGMEMRTTSSDGIHVWIARDDVMEALQIPDPGYALSFVTPEDQAALSSGTDVPDEEDEPDGLPMINEIAVYEIMARFPTPPTGRFKPWLLRLRHLFFELMTRDDEATFLLQ	not soluble
KILEREFSMNEQLFKDLFDRAVDGIVLFDKDGGFIDANLSFCKSFEINHNELSHLSLYEFIDSGSRKDFDNIWKALNRKGKAKGELPVKLRSGVQKLFEFTITSNIISGFYMSIMRDIT	not soluble
MSKVALIRCESYDYDAVKSAVKRGLDLIGGPHRFAAPNEKILLKPNLLSADPPERCSTTHPSVFKAVAEIFMEAGITNLSYGDSPGIHKPITAARKNGIEKAANELGIKLADFLEGKEVFFENAIQNKKFIIANGVLESDGIISLPKLKTHGFARMTGCVKNQFGCIPGPLKGEFHVRIPSIIDFSKMLVDLNVYLKPRLFVMDGIIAMEGNGPRGGTPRKINAILLSEDPIALDATVCRMINLNPEFVPTIVFGKEAGLGTYDENEIEILGDDIQSFITYDFDVRREPVKPFKPGGAIQFFRNFIVPKPYILKNKCIKCGVCVNACPVKPKAVDWHNGNKKEPPTYIYKRCIRCYCCQELCPESAIHLKVPFIRKFFYNPK	not soluble
MHSHLIPGIDDGSKSMEESLSLIQEFKKLGYKKIITTPHIMGDFFKNSKETIFPGLIELRASIAEAGIDIEIEAAAEYYLDEWFIEKLERNEPLLKLGGNYVLFETSYMNRPTQLHQAIFLMRSLGYIPVLAHPERYTYLYEDFKLFKEIYEMDVLFQINLNSLAGYYSKTAKLYAEKLIDNNMVDFVGTDCHGQRHIDVLAKVKVSNYYQKLQKLSILNNTLIS	not soluble
MGSSHHHHHHSSGLVPRGSHMASKRCRQCSGDSASSSTSSLSPSELPPSKKAAGGQRVTAEVEVAPITTDATSATVTAAGGAKKKATTGSPARRTSSAAKITNGDAGELIRTAEALAALNAKKSEKEIWSDVVPFVRRTTDSDFDPSRMYKFITWNVAGLRGLLKKNASALRAFMEAEKPDVLCLQETKLNVDEADANATLGVVDGYSFVDHPCAFKRGYSGTRTYMKNSTTVKGLHARCTRGFALPSEPQADAAAGSRVLVEGAGDEEGRVLTTFLSPDPDSASSSSRIALVNTYVANSGMGLTRLPYRVQSFDPSMREYLHRLDTWATENAAVPSAAAMGSGSSPHGFIWAGDLNVAERDYDRYYAGTFKSMQECSGFAPEERMSFRETMQRTNSVDIFRQLYPQAGPVYSFWSQRINGRPRNLGWRLDYFVVSSRLASYVVDCFPMPTVMGSDHCPFQMWMRHP	soluble
MSNYAKEERLTGGNVSSVYRSENTVRRELKPGSEKTHKLLQHLENKGFHYAPKFLGVDEKDREILSFIEGEAGNYPLKEYMRSNDVLKEIAKMLRLYHDAVSDFPLLNDWKPMDHTPNNIEVLCHNDFAIYNIIFNNEKPVGIIDFDVAAPGPRLWDIAYTLYTCVPLSRVYYTESGEAVHYDSPQHADRIKERVKLFVQSYGKNMDEDYLGMVLLRLEGLCTYMKRKAQEGDLNFQRMIDEGHLEHYEKDIKFIRDHRAEWS	not soluble
